# Bridge positions count the residues as written; N and C are the ends. Ends that are not written are not given here.
# Biological target: T1, Lysozyme (Sigma L-7651) (UniProt P00698 19-147)
# T1 construct: Used as 2 uM solution in 25 mM Tris pH 7.0; also called model protein
# Assay: TIRF flow chamber, tryptophan fluorescence (excitation 295 nm, emission 350 nm); lysozyme loaded over the peptide-coated quartz slide with the light off, then Tween20/PBS and buffer rinses
# Source text: A TIRF system (BioElectroSpec, Inc., Harrisburg, Pa.) coupled with a fluorescence spectrophotometer (PTI QM-2000 from Photon Technology Int., Lawrenceville, N.J.) with a 75W Xenon arc source was used. The PTI instrument excitation and emission slits were set at 6 nm. The flow chamber was comprised by a “sandwich” consisting of a TIRF quartz prism, a TIRF quartz slide (with the sample surface), a 10 μm polyureathane gasket (comprising the chamber thickness), and a back block with holes to channel the solution through the flow chamber. In this setup, the excitation light travels through the prism and slide, hits the interface between slide and solution, leading to total internal reflection at the interface. The reflected beam generates an evanescent electromagnetic field in the centre of the TIRF slide—this area of the TIRF slide serves thus as the sensor surface. Only fluorophores that are present at the surface and in close proximity of the surface (within the evanescent field) are excited and fluoresce.
# T1 sequence (P00698 19-147 limits assumed): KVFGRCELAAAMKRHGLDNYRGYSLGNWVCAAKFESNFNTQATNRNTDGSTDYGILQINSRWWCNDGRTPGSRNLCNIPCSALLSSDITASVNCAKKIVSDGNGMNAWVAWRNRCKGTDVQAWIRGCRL
binder,measurement,value
"KAMHAWGCGGGC-NH2 (disulfide 8-12; also: attached to aldehyde quartz surface via lysine amine and/or N-terminal amine (Schiff bond), Loaded at 10 uM onto an aldehyde-coated TIRF quartz slide; It stood in the assay as the surface coating; also called peptide linker) [synthetic disulphide-peptide KAMHAWGCGGGC-NH2 (SEQ ID NO 9)]",binding result,no binding (tested: 2 µM)
